Source: US20240360194A1, “New Peptides as Potent and Selective GIP Receptor Agonists” (Sanofi, priority 2021, published 2024)
Numbered stars: 1 amine (or outer) side, 2 acyl side, 3 side chain; on linkers, the order of the positions; unused ones are H or OH. Square brackets hold non-standard residues; d marks the D form. Side chains are listed from the residue outwards. Ends that are not written are not given here. * marks the point of attachment. C18 diacid = O=C(O)CCCCCCCCCCCCCCCCC(=O)*; γGlu = O=C(O)[C@H](CCC(=O)[*:2])N[*:1]; αMeF = C[C@](N)(Cc1ccccc1)C(=O)O; Iva = CC[C@](C)(N)C(=O)O; Abu = CC[C@H](N)C(=O)O; AEEA = NCCOCCOCC(=O)O; Aib = CC(C)(N)C(=O)O

T1: human GIP receptor (human, UniProt P48546 22-466)
T1 sequence (looked up): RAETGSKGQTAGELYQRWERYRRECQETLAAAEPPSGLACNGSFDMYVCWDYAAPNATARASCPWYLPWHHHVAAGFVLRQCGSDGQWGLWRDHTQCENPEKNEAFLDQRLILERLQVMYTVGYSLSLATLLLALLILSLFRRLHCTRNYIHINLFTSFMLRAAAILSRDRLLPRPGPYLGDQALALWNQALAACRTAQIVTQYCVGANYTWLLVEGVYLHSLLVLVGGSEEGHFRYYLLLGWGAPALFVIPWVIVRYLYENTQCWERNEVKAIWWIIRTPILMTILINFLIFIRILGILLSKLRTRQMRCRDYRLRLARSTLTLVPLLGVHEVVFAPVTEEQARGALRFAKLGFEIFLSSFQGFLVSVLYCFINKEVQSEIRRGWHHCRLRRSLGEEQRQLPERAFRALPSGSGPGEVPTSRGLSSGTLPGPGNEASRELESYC

B1: SEQ ID NO: 25 (peptide)
peptide: H-Y[Aib]EGT[Abu]ISDLSI[Aib]K([AEEA-AEEA-γGlu-C18 diacid])DRIHQEEFIEWLLAQGPSSGAPPPS-NH2
SMILES: CC[C@H](NC(=O)[C@@H](NC(=O)CNC(=O)[C@H](CCC(=O)O)NC(=O)C(C)(C)NC(=O)[C@@H](N)Cc1ccc(O)cc1)[C@@H](C)O)C(=O)N[C@H](C(=O)N[C@@H](CO)C(=O)N[C@@H](CC(=O)O)C(=O)N[C@@H](CC(C)C)C(=O)N[C@@H](CO)C(=O)N[C@H](C(=O)NC(C)(C)C(=O)N[C@@H](CCCCNC(=O)COCCOCCNC(=O)COCCOCCNC(=O)CC[C@H](NC(=O)CCCCCCCCCCCCCCCCC(=O)O)C(=O)O)C(=O)N[C@@H](CC(=O)O)C(=O)N[C@@H](CCCNC(=N)N)C(=O)N[C@H](C(=O)N[C@@H](Cc1c[nH]cn1)C(=O)N[C@@H](CCC(N)=O)C(=O)N[C@@H](CCC(=O)O)C(=O)N[C@@H](CCC(=O)O)C(=O)N[C@@H](Cc1ccccc1)C(=O)N[C@H](C(=O)N[C@@H](CCC(=O)O)C(=O)N[C@@H](Cc1c[nH]c2ccccc12)C(=O)N[C@@H](CC(C)C)C(=O)N[C@@H](CC(C)C)C(=O)N[C@@H](C)C(=O)N[C@@H](CCC(N)=O)C(=O)NCC(=O)N1CCC[C@H]1C(=O)N[C@@H](CO)C(=O)N[C@@H](CO)C(=O)NCC(=O)N[C@@H](C)C(=O)N1CCC[C@H]1C(=O)N1CCC[C@H]1C(=O)N1CCC[C@H]1C(=O)N[C@@H](CO)C(N)=O)[C@@H](C)CC)[C@@H](C)CC)[C@@H](C)CC)[C@@H](C)CC
notes: Synthetic peptide, 39 residues
B2: SEQ ID NO: 22 (peptide)
peptide: Y[Aib]EGTFISDLSI[Aib]K([AEEA-AEEA-γGlu-C18 diacid])DR[Aib]HQ[Aib]EFIEWLLAQRPSSGAPPPS-NH2
modifications: N-terminus assumed
SMILES: CC[C@H](C)[C@H](NC(=O)[C@H](Cc1ccccc1)NC(=O)[C@H](CCC(=O)O)NC(=O)C(C)(C)NC(=O)[C@H](CCC(N)=O)NC(=O)[C@H](Cc1c[nH]cn1)NC(=O)C(C)(C)NC(=O)[C@H](CCCNC(=N)N)NC(=O)[C@H](CC(=O)O)NC(=O)[C@H](CCCCNC(=O)COCCOCCNC(=O)COCCOCCNC(=O)CC[C@H](NC(=O)CCCCCCCCCCCCCCCCC(=O)O)C(=O)O)NC(=O)C(C)(C)NC(=O)[C@@H](NC(=O)[C@H](CO)NC(=O)[C@H](CC(C)C)NC(=O)[C@H](CC(=O)O)NC(=O)[C@H](CO)NC(=O)[C@@H](NC(=O)[C@H](Cc1ccccc1)NC(=O)[C@@H](NC(=O)CNC(=O)[C@H](CCC(=O)O)NC(=O)C(C)(C)NC(=O)[C@@H](N)Cc1ccc(O)cc1)[C@@H](C)O)[C@@H](C)CC)[C@@H](C)CC)C(=O)N[C@@H](CCC(=O)O)C(=O)N[C@@H](Cc1c[nH]c2ccccc12)C(=O)N[C@@H](CC(C)C)C(=O)N[C@@H](CC(C)C)C(=O)N[C@@H](C)C(=O)N[C@@H](CCC(N)=O)C(=O)N[C@@H](CCCNC(=N)N)C(=O)N1CCC[C@H]1C(=O)N[C@@H](CO)C(=O)N[C@@H](CO)C(=O)NCC(=O)N[C@@H](C)C(=O)N1CCC[C@H]1C(=O)N1CCC[C@H]1C(=O)N1CCC[C@H]1C(=O)N[C@@H](CO)C(N)=O
notes: as for B1
B3: SEQ ID NO: 32 (peptide)
peptide: H-Y[Aib]EGTFISDLSI[Aib]K([AEEA-AEEA-γGlu-C18 diacid])DRIHQEE[αMeF]IEWLLAQGPSSGAPPPS-NH2
SMILES: CC[C@H](C)[C@H](NC(=O)[C@H](CCCNC(=N)N)NC(=O)[C@H](CC(=O)O)NC(=O)[C@H](CCCCNC(=O)COCCOCCNC(=O)COCCOCCNC(=O)CC[C@H](NC(=O)CCCCCCCCCCCCCCCCC(=O)O)C(=O)O)NC(=O)C(C)(C)NC(=O)[C@@H](NC(=O)[C@H](CO)NC(=O)[C@H](CC(C)C)NC(=O)[C@H](CC(=O)O)NC(=O)[C@H](CO)NC(=O)[C@@H](NC(=O)[C@H](Cc1ccccc1)NC(=O)[C@@H](NC(=O)CNC(=O)[C@H](CCC(=O)O)NC(=O)C(C)(C)NC(=O)[C@@H](N)Cc1ccc(O)cc1)[C@@H](C)O)[C@@H](C)CC)[C@@H](C)CC)C(=O)N[C@@H](Cc1c[nH]cn1)C(=O)N[C@@H](CCC(N)=O)C(=O)N[C@@H](CCC(=O)O)C(=O)N[C@@H](CCC(=O)O)C(=O)N[C@@](C)(Cc1ccccc1)C(=O)N[C@H](C(=O)N[C@@H](CCC(=O)O)C(=O)N[C@@H](Cc1c[nH]c2ccccc12)C(=O)N[C@@H](CC(C)C)C(=O)N[C@@H](CC(C)C)C(=O)N[C@@H](C)C(=O)N[C@@H](CCC(N)=O)C(=O)NCC(=O)N1CCC[C@H]1C(=O)N[C@@H](CO)C(=O)N[C@@H](CO)C(=O)NCC(=O)N[C@@H](C)C(=O)N1CCC[C@H]1C(=O)N1CCC[C@H]1C(=O)N1CCC[C@H]1C(=O)N[C@@H](CO)C(N)=O)[C@@H](C)CC
notes: as for B1
B4: SEQ ID NO: 37 (peptide)
peptide: Y[Aib]EGTFISDLSI[Aib]LDRIK([AEEA-AEEA-γGlu-C18 diacid])Q[Aib]EFIEWLLAQGPSSGAPPPS-NH2
modifications: N-terminus assumed
SMILES: CC[C@H](C)[C@H](NC(=O)[C@H](CCCNC(=N)N)NC(=O)[C@H](CC(=O)O)NC(=O)[C@H](CC(C)C)NC(=O)C(C)(C)NC(=O)[C@@H](NC(=O)[C@H](CO)NC(=O)[C@H](CC(C)C)NC(=O)[C@H](CC(=O)O)NC(=O)[C@H](CO)NC(=O)[C@@H](NC(=O)[C@H](Cc1ccccc1)NC(=O)[C@@H](NC(=O)CNC(=O)[C@H](CCC(=O)O)NC(=O)C(C)(C)NC(=O)[C@@H](N)Cc1ccc(O)cc1)[C@@H](C)O)[C@@H](C)CC)[C@@H](C)CC)C(=O)N[C@@H](CCCCNC(=O)COCCOCCNC(=O)COCCOCCNC(=O)CC[C@H](NC(=O)CCCCCCCCCCCCCCCCC(=O)O)C(=O)O)C(=O)N[C@@H](CCC(N)=O)C(=O)NC(C)(C)C(=O)N[C@@H](CCC(=O)O)C(=O)N[C@@H](Cc1ccccc1)C(=O)N[C@H](C(=O)N[C@@H](CCC(=O)O)C(=O)N[C@@H](Cc1c[nH]c2ccccc12)C(=O)N[C@@H](CC(C)C)C(=O)N[C@@H](CC(C)C)C(=O)N[C@@H](C)C(=O)N[C@@H](CCC(N)=O)C(=O)NCC(=O)N1CCC[C@H]1C(=O)N[C@@H](CO)C(=O)N[C@@H](CO)C(=O)NCC(=O)N[C@@H](C)C(=O)N1CCC[C@H]1C(=O)N1CCC[C@H]1C(=O)N1CCC[C@H]1C(=O)N[C@@H](CO)C(N)=O)[C@@H](C)CC
notes: as for B1
B5: SEQ ID NO: 28 (peptide)
peptide: Y[Aib]EGTFISDLSI[Aib]K([AEEA-AEEA-γGlu-C18 diacid])DRIHQEEFIEWLLAQEPSSGAPPPS-OH
modifications: N-terminus assumed
SMILES: CC[C@H](C)[C@H](NC(=O)[C@H](Cc1ccccc1)NC(=O)[C@H](CCC(=O)O)NC(=O)[C@H](CCC(=O)O)NC(=O)[C@H](CCC(N)=O)NC(=O)[C@H](Cc1c[nH]cn1)NC(=O)[C@@H](NC(=O)[C@H](CCCNC(=N)N)NC(=O)[C@H](CC(=O)O)NC(=O)[C@H](CCCCNC(=O)COCCOCCNC(=O)COCCOCCNC(=O)CC[C@H](NC(=O)CCCCCCCCCCCCCCCCC(=O)O)C(=O)O)NC(=O)C(C)(C)NC(=O)[C@@H](NC(=O)[C@H](CO)NC(=O)[C@H](CC(C)C)NC(=O)[C@H](CC(=O)O)NC(=O)[C@H](CO)NC(=O)[C@@H](NC(=O)[C@H](Cc1ccccc1)NC(=O)[C@@H](NC(=O)CNC(=O)[C@H](CCC(=O)O)NC(=O)C(C)(C)NC(=O)[C@@H](N)Cc1ccc(O)cc1)[C@@H](C)O)[C@@H](C)CC)[C@@H](C)CC)[C@@H](C)CC)C(=O)N[C@@H](CCC(=O)O)C(=O)N[C@@H](Cc1c[nH]c2ccccc12)C(=O)N[C@@H](CC(C)C)C(=O)N[C@@H](CC(C)C)C(=O)N[C@@H](C)C(=O)N[C@@H](CCC(N)=O)C(=O)N[C@@H](CCC(=O)O)C(=O)N1CCC[C@H]1C(=O)N[C@@H](CO)C(=O)N[C@@H](CO)C(=O)NCC(=O)N[C@@H](C)C(=O)N1CCC[C@H]1C(=O)N1CCC[C@H]1C(=O)N1CCC[C@H]1C(=O)N[C@@H](CO)C(=O)O
notes: Synthetic peptide, 39 residues (Glu at 30)

How the values were obtained:
[1] = target: T2, human GLP-1 receptor (human, UniProt P43220 24-463); test: displacement of [125I]GLP-1 from HEK-293 membranes expressing hGLP-1R (SPA beads)
T2 construct: whole, on cells; also called hGLP-1R; hGLP-1 R

[2] = target: T1, human GIP receptor; test: cell-based or functional assay
[3] = target: T1, human GIP receptor; test: cell-based or functional assay; remark: listed apart in the source
[4] = target: T2, human GLP-1 receptor; test: cell-based or functional assay

Binder | IC50 [1] [nM] | hGIPR EC50 (cAMP, human adipocytes) [2] [nM] | hGIPR Emax (cAMP, human adipocytes) [2] [%] | EC50 hGIPR 0% HSA (cAMP, HEK-293) [3] [nM] | EC50 hGIPR 0.1% BSA (cAMP, HEK-293) [3] [nM] | EC50 hGLP-1R 0.1% BSA (cAMP, HEK-293) [4] [nM]
B1 | 417 | 0.2 | 112 | 0.00028 | 0.0144 | > 10
H-Y[Aib]EGT[Iva]ISDLSI[Aib]K([AEEA-AEEA-γGlu-C18 diacid])DRIHQ[Aib]EFIEWLLAQGPSSGAPPPS-NH2 (Synthetic peptide, 39 residues) [SEQ ID NO: 23] | 259 | 0.2 | 91 | 0.00027 | 0.0177 | > 10
B2 | 221 | 0.6 | 98 | 0.00016 | 0.00666 | > 10
B3 | 650 | 0.6 | 109 | 0.00096 | 0.119 | > 10
H-Y[Aib]EGTFISDLSI[Aib]K([AEEA-AEEA-γGlu-C18 diacid])DRIHQ[Aib]EFIEW[Iva]LAQGPSSGAPPPS-NH2 (Synthetic peptide, 39 residues) [SEQ ID NO: 31] | 292 | 0.7 | 121 | 0.00015 | 0.00696 | > 10
B4 | 41 | 0.5 | 113 | 0.00015 | 0.0201 | > 10
B5 | 426 | 0.5 | 103 | 0.00073 | 0.0647 | > 10
